# From the supplement of paper PMC10065799, “High-throughput profiling of sequence recognition by tyrosine kinases and SH2 domains using bacterial peptide display” (eLife, 2023)
# Legend:
# SHP2-C SH2 = test: SH2 binding enrichment of the phosphorylated peptide, bacterial display (enrichment ratio); higher = better substrate or ligand; peptides without Tyr show the background
# Grb2 SH2 = Grb2 SH2 (UniProt P62993); test: as above
# c-Src SH2 = test: as above
# Jak2 = Jak2 (UniProt O60674); test: phosphorylation enrichment, bacterial display (enrichment ratio); higher = better substrate or ligand; peptides without Tyr show the background
# Fyn = Fyn (UniProt P06241); test: as above
# Hck = Hck (UniProt P08631); test: as above
# AncSZ = test: as above
# EPHB2 = EPHB2 (UniProt P29323); test: as above
# Fes = Fes (UniProt P07332); test: as above
# FGFR1 = FGFR1 (UniProt P11362); test: as above
# c-Src = test: as above
# FGFR3 = FGFR3 (UniProt P22607); test: as above
# Fer (mouse) = test: as above
# EPHB1 = EPHB1 (UniProt P54762); test: as above
# MERTK = MERTK (UniProt Q12866); test: as above
# c-Abl (mouse) = test: as above
# 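Throughout, for SH2 binding enrichment of the phosphorylated peptide, bacterial display: peptide library displayed on the E. coli surface as eCPX fusions, selected cells deep-sequenced, score is each peptide's frequency after selection divided by its frequency in the input.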
# 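Throughout, for phosphorylation enrichment, bacterial display: 11-residue human phosphosite peptides and single-mutation variants displayed on the E. coli surface, counted by deep sequencing, each peptide's frequency after selection divided by its frequency in the unselected input library; frequency after pTyr selection over input frequency; kinase dosed for 20-30% of maximal phosphorylation in three min.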
# Sequence of FGFR3 (P22607 whole entry, looked up): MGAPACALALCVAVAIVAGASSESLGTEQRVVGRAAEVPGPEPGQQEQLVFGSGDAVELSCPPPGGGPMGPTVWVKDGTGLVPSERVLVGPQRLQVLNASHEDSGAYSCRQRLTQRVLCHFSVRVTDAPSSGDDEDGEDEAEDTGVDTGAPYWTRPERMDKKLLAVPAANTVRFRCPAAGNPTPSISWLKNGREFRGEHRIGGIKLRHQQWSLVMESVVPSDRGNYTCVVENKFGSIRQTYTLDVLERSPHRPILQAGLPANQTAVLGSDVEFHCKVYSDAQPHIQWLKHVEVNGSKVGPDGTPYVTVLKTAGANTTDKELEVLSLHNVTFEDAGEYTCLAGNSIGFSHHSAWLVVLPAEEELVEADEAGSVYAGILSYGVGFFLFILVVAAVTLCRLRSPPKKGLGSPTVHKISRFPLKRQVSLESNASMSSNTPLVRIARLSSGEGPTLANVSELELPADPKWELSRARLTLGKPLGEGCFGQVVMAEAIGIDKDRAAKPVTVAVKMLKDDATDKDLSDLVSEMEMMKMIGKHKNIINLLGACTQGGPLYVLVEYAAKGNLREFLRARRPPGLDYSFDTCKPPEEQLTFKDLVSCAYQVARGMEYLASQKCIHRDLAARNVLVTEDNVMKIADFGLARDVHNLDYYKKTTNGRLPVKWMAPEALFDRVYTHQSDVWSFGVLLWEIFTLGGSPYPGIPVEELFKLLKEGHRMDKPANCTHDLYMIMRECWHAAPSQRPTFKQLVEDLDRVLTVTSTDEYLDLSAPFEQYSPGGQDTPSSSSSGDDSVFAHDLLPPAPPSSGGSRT
# Sequence of FGFR1 (P11362 whole entry, looked up): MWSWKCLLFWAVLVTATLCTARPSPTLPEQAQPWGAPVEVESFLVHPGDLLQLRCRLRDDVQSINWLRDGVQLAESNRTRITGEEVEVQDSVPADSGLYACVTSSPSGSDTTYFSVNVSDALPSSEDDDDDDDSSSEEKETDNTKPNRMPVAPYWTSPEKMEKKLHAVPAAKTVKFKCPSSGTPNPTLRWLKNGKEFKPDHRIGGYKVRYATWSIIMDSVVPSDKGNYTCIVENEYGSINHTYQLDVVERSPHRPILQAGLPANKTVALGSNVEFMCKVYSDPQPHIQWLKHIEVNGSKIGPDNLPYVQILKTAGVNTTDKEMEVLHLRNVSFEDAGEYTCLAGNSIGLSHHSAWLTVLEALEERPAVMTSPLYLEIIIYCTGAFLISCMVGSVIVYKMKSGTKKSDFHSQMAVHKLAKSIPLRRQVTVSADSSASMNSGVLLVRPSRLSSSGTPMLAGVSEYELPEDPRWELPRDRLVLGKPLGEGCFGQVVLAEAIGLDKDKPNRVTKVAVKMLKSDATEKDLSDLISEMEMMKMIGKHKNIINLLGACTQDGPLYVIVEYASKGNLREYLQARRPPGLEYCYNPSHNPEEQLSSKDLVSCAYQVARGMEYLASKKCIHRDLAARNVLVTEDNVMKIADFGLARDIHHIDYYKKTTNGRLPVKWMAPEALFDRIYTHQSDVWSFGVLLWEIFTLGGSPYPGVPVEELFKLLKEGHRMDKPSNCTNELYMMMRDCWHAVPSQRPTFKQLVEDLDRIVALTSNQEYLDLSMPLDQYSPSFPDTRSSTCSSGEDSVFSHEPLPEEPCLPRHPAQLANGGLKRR
# Sequence of EPHB2 (P29323 whole entry, looked up): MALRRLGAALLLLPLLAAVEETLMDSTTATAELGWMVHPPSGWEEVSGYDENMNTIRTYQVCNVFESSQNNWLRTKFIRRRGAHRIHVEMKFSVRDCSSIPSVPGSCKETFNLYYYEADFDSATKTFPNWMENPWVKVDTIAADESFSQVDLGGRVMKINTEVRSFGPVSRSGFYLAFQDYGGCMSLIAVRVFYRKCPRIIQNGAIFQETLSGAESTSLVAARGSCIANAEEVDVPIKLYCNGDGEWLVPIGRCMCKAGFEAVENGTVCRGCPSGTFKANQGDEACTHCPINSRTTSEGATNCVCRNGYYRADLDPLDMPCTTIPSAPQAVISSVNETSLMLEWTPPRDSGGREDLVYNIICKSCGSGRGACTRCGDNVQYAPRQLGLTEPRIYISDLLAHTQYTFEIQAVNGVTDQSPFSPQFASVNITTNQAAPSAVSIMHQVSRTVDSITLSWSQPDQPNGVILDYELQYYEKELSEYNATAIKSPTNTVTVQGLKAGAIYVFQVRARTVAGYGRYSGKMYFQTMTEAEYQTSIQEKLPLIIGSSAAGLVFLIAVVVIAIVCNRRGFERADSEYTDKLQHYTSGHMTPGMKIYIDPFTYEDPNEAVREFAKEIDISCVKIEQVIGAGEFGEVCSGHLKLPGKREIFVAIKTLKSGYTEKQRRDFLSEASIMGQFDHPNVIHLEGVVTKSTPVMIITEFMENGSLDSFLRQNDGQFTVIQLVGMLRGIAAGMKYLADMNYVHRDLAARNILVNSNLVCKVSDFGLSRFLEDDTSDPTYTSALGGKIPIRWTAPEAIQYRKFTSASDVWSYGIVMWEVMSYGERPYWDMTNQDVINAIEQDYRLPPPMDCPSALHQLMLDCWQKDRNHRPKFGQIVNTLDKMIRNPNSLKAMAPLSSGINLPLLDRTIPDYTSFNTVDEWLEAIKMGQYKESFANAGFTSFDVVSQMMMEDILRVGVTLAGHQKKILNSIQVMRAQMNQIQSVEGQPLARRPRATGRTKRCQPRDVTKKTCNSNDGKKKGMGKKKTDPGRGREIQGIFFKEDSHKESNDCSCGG
# Sequence of Fyn (P06241 whole entry, looked up): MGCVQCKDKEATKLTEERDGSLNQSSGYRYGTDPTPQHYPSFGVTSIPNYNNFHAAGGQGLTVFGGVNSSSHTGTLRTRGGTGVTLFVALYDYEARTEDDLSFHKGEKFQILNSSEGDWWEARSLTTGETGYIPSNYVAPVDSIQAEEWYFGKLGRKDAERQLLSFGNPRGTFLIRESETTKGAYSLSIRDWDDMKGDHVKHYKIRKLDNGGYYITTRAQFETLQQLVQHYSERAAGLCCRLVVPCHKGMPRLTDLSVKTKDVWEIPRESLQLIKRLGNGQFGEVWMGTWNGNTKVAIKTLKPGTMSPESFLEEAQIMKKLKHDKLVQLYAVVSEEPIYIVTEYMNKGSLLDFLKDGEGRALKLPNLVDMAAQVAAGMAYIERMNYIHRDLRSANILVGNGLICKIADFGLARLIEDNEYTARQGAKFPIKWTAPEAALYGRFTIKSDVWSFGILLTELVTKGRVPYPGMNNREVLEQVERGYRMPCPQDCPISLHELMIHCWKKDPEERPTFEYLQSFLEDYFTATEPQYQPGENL
# Sequence of EPHB1 (P54762 whole entry, looked up): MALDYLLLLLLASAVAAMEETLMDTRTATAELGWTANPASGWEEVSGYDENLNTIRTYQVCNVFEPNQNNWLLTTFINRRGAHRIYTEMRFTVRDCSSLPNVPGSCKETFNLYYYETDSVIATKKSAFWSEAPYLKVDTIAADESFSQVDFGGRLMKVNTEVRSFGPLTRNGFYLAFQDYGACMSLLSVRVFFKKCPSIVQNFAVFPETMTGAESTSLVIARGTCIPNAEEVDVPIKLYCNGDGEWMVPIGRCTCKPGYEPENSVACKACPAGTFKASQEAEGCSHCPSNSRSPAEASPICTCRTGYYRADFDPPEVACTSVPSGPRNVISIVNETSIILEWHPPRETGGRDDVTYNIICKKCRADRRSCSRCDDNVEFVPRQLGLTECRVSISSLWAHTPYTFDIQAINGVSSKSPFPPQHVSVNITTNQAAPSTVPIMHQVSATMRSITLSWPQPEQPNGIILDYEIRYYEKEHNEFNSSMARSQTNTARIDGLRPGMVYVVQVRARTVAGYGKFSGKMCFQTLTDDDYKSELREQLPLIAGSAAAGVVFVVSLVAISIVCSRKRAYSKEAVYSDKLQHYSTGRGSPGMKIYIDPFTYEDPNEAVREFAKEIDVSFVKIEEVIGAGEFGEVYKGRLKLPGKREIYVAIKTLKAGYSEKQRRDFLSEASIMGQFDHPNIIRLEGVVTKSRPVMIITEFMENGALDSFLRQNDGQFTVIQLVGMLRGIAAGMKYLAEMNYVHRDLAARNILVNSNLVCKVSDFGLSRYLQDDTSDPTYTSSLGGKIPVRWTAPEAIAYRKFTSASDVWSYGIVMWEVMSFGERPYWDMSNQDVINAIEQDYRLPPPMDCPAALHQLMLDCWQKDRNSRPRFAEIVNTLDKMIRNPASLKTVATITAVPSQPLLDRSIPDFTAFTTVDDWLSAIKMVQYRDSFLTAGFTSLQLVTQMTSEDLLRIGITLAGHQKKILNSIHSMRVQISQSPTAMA
# Sequence of Fes (P07332 whole entry, looked up): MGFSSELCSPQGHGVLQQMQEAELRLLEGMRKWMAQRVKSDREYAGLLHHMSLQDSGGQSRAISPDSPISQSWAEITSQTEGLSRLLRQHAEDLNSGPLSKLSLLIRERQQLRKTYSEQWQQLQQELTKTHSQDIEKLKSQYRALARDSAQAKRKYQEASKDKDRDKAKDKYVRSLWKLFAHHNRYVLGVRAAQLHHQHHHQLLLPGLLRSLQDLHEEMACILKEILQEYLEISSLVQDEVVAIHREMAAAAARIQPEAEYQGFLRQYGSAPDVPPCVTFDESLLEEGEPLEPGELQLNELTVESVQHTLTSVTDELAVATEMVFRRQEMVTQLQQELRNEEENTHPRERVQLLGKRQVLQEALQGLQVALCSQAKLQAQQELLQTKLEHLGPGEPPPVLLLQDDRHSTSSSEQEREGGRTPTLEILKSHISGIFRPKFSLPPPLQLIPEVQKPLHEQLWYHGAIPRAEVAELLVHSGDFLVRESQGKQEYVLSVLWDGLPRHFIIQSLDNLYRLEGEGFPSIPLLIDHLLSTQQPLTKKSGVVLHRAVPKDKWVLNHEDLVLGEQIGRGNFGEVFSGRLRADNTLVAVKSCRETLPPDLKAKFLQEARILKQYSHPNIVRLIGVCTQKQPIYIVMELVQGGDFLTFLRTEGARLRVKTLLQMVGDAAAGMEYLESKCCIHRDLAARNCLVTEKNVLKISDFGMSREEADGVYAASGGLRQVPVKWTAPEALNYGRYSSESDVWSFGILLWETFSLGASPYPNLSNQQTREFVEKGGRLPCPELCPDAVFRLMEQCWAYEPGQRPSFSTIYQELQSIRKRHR
Sequence,SH2 binding enrichment (SHP2-C SH2),SH2 binding enrichment (Grb2 SH2),SH2 binding enrichment (c-Src SH2),phosphorylation enrichment (Jak2),phosphorylation enrichment (Fyn),phosphorylation enrichment (Hck),phosphorylation enrichment (AncSZ),phosphorylation enrichment (EPHB2),phosphorylation enrichment (Fes),phosphorylation enrichment (FGFR1),phosphorylation enrichment (c-Src),phosphorylation enrichment (FGFR3),phosphorylation enrichment (Fer (mouse)),phosphorylation enrichment (EPHB1),phosphorylation enrichment (MERTK),phosphorylation enrichment (c-Abl (mouse))
FSQNICIQNRN [PKP2_Y631_Y631C_YF],0.627,0.733,0.665,0.841,0.384,0.392,0.766,0.524,0.903,0.395,0.44,0.584,0.535,0.608,0.388,0.719
GGGFGYQKTRK [DDX18_Y643_K647R],0.461,0.976,0.536,0.57,0.401,0.393,0.597,0.302,0.613,0.422,0.492,0.46,0.422,0.629,0.514,0.719
CTTIHYNYMCY [TP53_Y234_N239Y],3.28,1.65,3.88,0.957,1.15,0.647,0.946,3.42,1,3.76,2.17,1.95,1.25,5.43,0.804,0.78
EGQKIYIDDNS [PIP4K2A_Y246_N251S],0.656,0.661,0.538,0.886,0.53,0.465,0.862,0.549,1.09,0.446,0.526,0.645,0.459,0.499,0.461,0.689
FGAHKYHPLPV [OAT_Y55_N54K_YF],1.26,1.46,1.31,0.424,0.309,0.474,0.497,0.468,0.677,0.397,0.377,0.544,0.441,0.375,0.376,0.443
VDGSVYKLPPS [GCK_Y413_H416P],0.525,0.744,0.426,0.598,2.81,0.61,0.728,0.563,0.795,0.523,1.46,0.492,0.514,0.429,0.5,0.661
AGEGSYALDSE [PES1_Y265_T264S],0.649,0.977,0.668,1.05,0.946,0.747,1.24,0.629,1.19,0.644,0.538,0.719,0.608,0.461,0.568,0.64
EEVGIYRVSGV [BCR_Y1089],0.521,0.732,0.491,0.794,4.31,3.09,1.04,0.434,0.919,0.457,4.45,0.647,0.504,0.488,0.575,14.1
VTAVAYRLAEQ [HK1_Y461],0.604,0.828,0.782,0.543,0.473,0.475,0.633,0.424,0.792,0.495,0.385,0.584,0.446,0.47,0.349,0.509
AKVKPYVNGTS [IBTK_Y1064],0.878,1.11,0.559,0.58,0.486,0.402,0.606,0.419,0.559,0.421,0.412,0.47,0.461,0.41,0.357,0.778
RLLVDYPWTQR [HBB_Y36_V35D],0.884,0.883,0.554,0.516,0.616,0.476,0.978,0.542,0.759,0.544,0.351,0.75,0.45,0.591,0.411,0.465
PLKYLYPNIDR [STAT1_Y668_K673R],0.652,0.8,1.93,0.859,0.313,0.501,1.23,0.819,1.38,0.606,0.684,0.58,0.773,0.579,0.435,1.09
ASENVYVNTAH [CTSC_Y150_I153T],1.12,7.62,1.27,0.772,0.748,0.796,0.936,0.588,0.86,0.633,0.814,0.485,0.527,0.7,0.429,0.599
VVQGLYKSMRK [KBTBD2_Y250_P254R],0.652,0.68,0.462,0.522,0.421,0.351,0.628,0.432,0.464,0.403,0.391,0.358,0.372,0.397,0.482,0.519
KQQEIYQEVTQ [CD209_Y239_L242V],0.785,0.929,0.513,0.765,5.17,5.41,1.26,4.5,0.942,2.56,5.15,1.96,7.32,7.2,4.06,1.94
MSPPGYKLLTG [GJA1_Y286_V289L],0.67,0.828,0.488,0.669,0.454,0.405,0.625,0.891,0.756,0.515,0.503,0.599,0.474,0.542,0.465,0.731
KVALPYKPYFY [POLE_Y100],1.17,1.25,0.966,0.962,0.465,0.485,0.778,0.438,0.963,0.47,0.858,0.658,0.346,0.589,0.556,0.681
